Here are results for 3 molecules from patent US20180264108A1 (ENCARE BIOTECH B V, published 2018).

Holding throughout (test): PEPSCAN ELISA, peptide on card, alanine scan
In general terms: In an ELISA, binding on a coated surface is turned into a signal by an enzyme label.

For one experiment, the target named is T1, peptide TYSSPEDAIHELFP
T1 construct: Alanine-scan peptide on a PEPSCAN card; also called replaced amino acid G
T1 peptide: TYSSPEDAIHELFP

In another experiment the target is T2, peptide TYSSPEDGAHELFP
T2 construct: Alanine-scan peptide on a PEPSCAN card; also called replaced amino acid I
T2 peptide: TYSSPEDGAHELFP

A further experiment addresses T3, peptide TYSSPEDGIHELAP
T3 construct: Alanine-scan peptide on a PEPSCAN card; also called replaced amino acid F
T3 peptide: TYSSPEDGIHELAP

The target of another experiment is T4, peptide TYSSPEDGIHEAFP
T4 construct: Alanine-scan peptide on a PEPSCAN card; also called replaced amino acid L
T4 peptide: TYSSPEDGIHEAFP

B1: antibody 17G8.72 (antibody, V domains shown)
VH: DVQLQESGPDLVKPSQSLSLTCTVTGYSIASGYSWHWIRQFPGNKLEWMGYIHFSGSANYNPSLKSRISITRDTSKNQFFLQLNSVTTEDTATYYCASEARGYFDYWGQGTTLTVSS
VL: DVLMTQTPLSLPVSLGDQASISCRSSQSIVRSNGNTYLTWYLQKPGQSPKLLIYKVSNRFSGVPDRFSGSGSGTDFTLKISRVEAEDLGVYFCFQGSHVPPTFGSGTKLEIKR
In the case of B1, the figures for the “Antibody binding (arbitrary optical density units)” value (from here on “Antibody binding”) with peptide TYSSPEDAIHELFP, in the experiment with peptide TYSSPEDGAHELFP and in the experiment with peptide TYSSPEDGIHELAP were 89 arbitrary optical density units, 66 arbitrary optical density units and 106 arbitrary optical density units, respectively.

B2: antibody 27A12.70 (antibody, V domains shown)
VH: DVQLQESGPDLVKPSQSLSLTCTVTGYSITSGYSWHWIRQFPGNKLEWMGYIHYSGIANYNPSLKSRISITRDTSKNHFFLQLNSVTTEDTATYYCATEKTGFFDYWGQGTTLTVSS
VL: DVVMTQTPLSLPVSLGDQASISCRSSQSLVHSNGNTYLHWYLQKPGQSPKLLIYKVSNRFSGVPDRFSGSGSGTDFTLKISRVEAEDLGVYFCSQSAHVPPTFGGGTKLEIKR
Consider B2, for which the “Antibody binding” value with peptide TYSSPEDAIHELFP is 122 arbitrary optical density units; with peptide TYSSPEDGAHELFP it was 91 arbitrary optical density units; with peptide TYSSPEDGIHELAP, 249 arbitrary optical density units.

B3: antibody 29E7.35 (antibody, V domains shown)
VH: AVQLQESGPDLVKPSHSLSLTCTVTGYSITSGYSWHWIRQFPGNKLEWMGYIHYSGSANYNPSLKSRFSITRDTSKNQFFLQLNSVTTEDTATYYCATEKTGFFDYWGQGTTLTVSS
VL: DVVMTQTPLSLPVSLGDQASISCRSSQSLVHSNGNTYLHWYLQKPGQSPKLLIYKVSNRFSGVPDRFSGSGSGTDFTLKISRVEAEDLGVYFCSQSAHVPPTFGGGTKLEIKR
Regarding B3, the “Antibody binding” value with peptide TYSSPEDAIHELFP is 81 arbitrary optical density units; with peptide TYSSPEDGAHELFP, 74 arbitrary optical density units; in the experiment with peptide TYSSPEDGIHEAFP, 194 arbitrary optical density units; in the experiment with peptide TYSSPEDGIHELAP, 124 arbitrary optical density units.
